The values below come from PMC7033278, “A Nonpeptide Oxytocin Receptor Agonist for a Durable Relief of Inflammatory Pain” (Scientific Reports, 2020).

The target in series [1] is Transient Receptor Potential Vanilloid type-1 (TRPV1). On the set-up: method as in PMID 29117570. Particulars: cited from earlier work.
On the set-up of series [2]: method as in PMID 19183510. Particulars: humans and rats; listed as OT; cited from earlier work.
Details of series [3]: method as in PMID 6831225. Particulars: rat CSF (abstract: humans and rats), cited from earlier work.
The conditions of series [4]: stated for comparison, no reference given; cited from earlier work.
Series [5] addresses T1, ionotropic TRPV1 receptor (Homo sapiens, UniProt Q8NER1).
T1 construct: Eurofins (contract assay)
Put plainly: Eurofins functional profiling, TRPV1 agonist/antagonist. The following applies: 5 μM. Format: cell-based. Here is the method:
In vitro profiling of LIT-001 was performed by Eurofins as described in the Eurofins SafetyScreen-Functional panel, 2018[31]. The hepatotoxicity of LIT-001 was studied with cryo-preserved mouse hepatocytes. After unfreezing (optiTHAW and optiINCUBATE media, Xenotech) and cell viability control, cells (2 × 10^6 cells/ml) were dispatched in 96 well microtiterplates. LIT-001 was added to reach a concentration 1 μM in the presence of 1 × 10^6 cells/mL in a volume of 100 μl/well. The incubation was stopped at 4, 20, 40, 80 and 120 min in adding 100 μl of acetonitrile at 0 °C. A positive control was treated in the same conditions. All samples were analyzed by UHPLC coupled to a mass spectrometer (Shimadzu LC-MS 8030).

Where two headings read alike, the source gives them in different places.

As usually defined, the EC50 is the concentration that produces a half-maximal response.

T1 sequence (Q8NER1 whole entry): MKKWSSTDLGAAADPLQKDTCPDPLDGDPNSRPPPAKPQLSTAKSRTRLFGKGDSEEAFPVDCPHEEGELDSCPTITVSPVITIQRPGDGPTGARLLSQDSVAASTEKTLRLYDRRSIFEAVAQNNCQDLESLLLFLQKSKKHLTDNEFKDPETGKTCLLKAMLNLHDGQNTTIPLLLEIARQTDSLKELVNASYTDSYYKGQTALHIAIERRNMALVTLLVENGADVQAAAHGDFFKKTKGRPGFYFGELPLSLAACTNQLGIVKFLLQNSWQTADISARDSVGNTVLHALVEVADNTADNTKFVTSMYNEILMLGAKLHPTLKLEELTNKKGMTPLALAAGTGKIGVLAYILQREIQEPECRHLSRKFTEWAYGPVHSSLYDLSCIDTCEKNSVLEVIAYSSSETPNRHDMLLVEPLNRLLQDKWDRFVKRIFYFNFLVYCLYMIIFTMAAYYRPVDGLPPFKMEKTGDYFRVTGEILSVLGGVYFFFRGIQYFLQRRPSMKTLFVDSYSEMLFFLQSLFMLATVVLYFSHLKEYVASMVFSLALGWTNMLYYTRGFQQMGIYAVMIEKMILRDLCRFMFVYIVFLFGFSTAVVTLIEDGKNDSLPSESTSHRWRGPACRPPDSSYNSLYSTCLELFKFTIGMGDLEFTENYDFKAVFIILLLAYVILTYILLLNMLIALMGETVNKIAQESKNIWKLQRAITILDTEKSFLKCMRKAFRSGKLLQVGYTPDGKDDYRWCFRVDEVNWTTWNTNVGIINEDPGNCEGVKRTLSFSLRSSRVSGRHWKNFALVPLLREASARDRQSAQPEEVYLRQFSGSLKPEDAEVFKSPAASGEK

Regarding Oxytocin, the concentration giving a half-maximal response (EC50) in series [1] is 316 nM. For the same compound, the “half-life in the blood circulation” value in series [2] was 5 min. The “half-life in cerebrospinal fluid (CSF)” value in series [3] was “around twenty”; in series [3] (listed as OT) it was “around 20 minutes”. Further, the half-life result in series [4] is recorded as “less than 15 min”.

For `Cc1ccccc1N1CCN(S(=O)(=O)C[C@]23CC[C@H](C[C@@H]2NC(=O)[C@@H](N)CCS(C)(=O)=O)C3(C)C)CC1` [L-368,699, reference compound], in series [5], the “agonist or antagonist activity at TRPV1 receptor” value is recorded as “neither LIT-001 nor the OT antagonist L-368,699 displayed any significant agonist or antagonist activity”.
